Experimental data taken from US20250352661A1 (MYTHIC THERAPEUTICS, published 2025).
Residue numbers refer to the chain shown, from its start. Names may count otherwise.

T1: Human LRRC15 Protein, His Tag (Acro Biosystems) (human, UniProt Q8TF66 22-538, limits assumed)
T1 construct: Bought protein with His tag
T1 sequence (looked up): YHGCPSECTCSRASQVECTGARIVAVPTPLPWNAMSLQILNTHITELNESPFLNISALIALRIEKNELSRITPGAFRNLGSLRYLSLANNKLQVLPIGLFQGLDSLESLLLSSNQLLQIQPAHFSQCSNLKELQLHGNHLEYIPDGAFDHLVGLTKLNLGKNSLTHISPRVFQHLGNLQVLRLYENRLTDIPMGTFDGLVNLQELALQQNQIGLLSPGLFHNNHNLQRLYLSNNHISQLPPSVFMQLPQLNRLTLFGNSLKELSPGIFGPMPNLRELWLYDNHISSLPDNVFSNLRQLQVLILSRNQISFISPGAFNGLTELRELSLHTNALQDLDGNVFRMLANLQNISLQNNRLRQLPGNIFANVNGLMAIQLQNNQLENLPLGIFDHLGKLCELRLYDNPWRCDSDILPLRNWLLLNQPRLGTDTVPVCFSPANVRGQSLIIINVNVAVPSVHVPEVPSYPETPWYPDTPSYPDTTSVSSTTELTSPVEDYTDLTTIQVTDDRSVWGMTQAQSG

T2: Human LRRC15 Protein, His Tag (Acro Biosystems) (human, UniProt Q8TF66 22-538, limits assumed)
T2 construct: not shown: His tag
T2 sequence (looked up): T1 sequence (looked up)

B1: MYT8387 (antibody, V domains shown)
VH: EVQLVESGGGLVQPGGSLRLSCTASGLDFRRTNHICWVRQAPGKGLEWVGCIYIADVVHYYASWAKGRFTFSRDTSKNTVYLQMNSLRAEDTAVYYCARGADGGFVYGMDLWGQGTLVTVSS
VL: EIVMTQSPSTLSASVGDRVIITCQASQSIGNYLSWYQQKPGKAPKRLIYSASTLPSGVPSRFSGSGSGAEFTLTISSLQPDDFATYYCQNNYWLAGYGHPFGQGTKLTVL
notes: hu15G7 VH Y34H; human Fc
B2: MYT8394 (antibody, V domains shown)
VH: B1 VH with F105H
VL: B1 VL
notes: hu15G7 VH Y34H, F105H; human Fc
B3: MYT8389 (antibody, V domains shown)
VH: B1 VH with H34Y, G104H
VL: B1 VL
notes: hu15G7 VH G104H; human Fc
B4: MYT8388 (antibody, V domains shown)
VH: B1 VH with H34Y, Y53H
VL: B1 VL
notes: hu15G7 VH Y53H; human Fc
B5: MYT8390 (antibody, V domains shown)
VH: B1 VH with H34Y, F105H
VL: B1 VL
notes: hu15G7 VH F105H; human Fc
B6: MYT8395 (antibody, V domains shown)
VH: B1 VH with V106H
VL: B1 VL
notes: hu15G7 VH Y34H, V106H; human Fc
B7: MYT8392 (antibody, V domains shown)
VH: B1 VH with Y53H
VL: B1 VL
notes: hu15G7 VH Y34H, Y53H; human Fc
B8: MYT9705 (antibody, V domains shown)
VH: EVQLVESGGGLVQPGGSLRLSCTASGFSFSSSHWICWVRQAPGKGLEWVGCIYAGSIGSTEYASWAKGRFTISRDTSKNTVYLQMNSLRAEDTAVYYCARAPNDIYNYYFNLWGQGTLVTVSS
VL: EIVMTQSPSTLSASVGDRVIITCQASENIYNYLAWYQQKPGKAPKLLIYYASTLASGVPSRFSGSGSGAEFTLTISSLQPDDFATYYCQSGYVSKSSTFGQGTKLTVL
notes: also called hu29F1 VH Y61E
B9: MYT9707 (antibody, V domains shown)
VH: B8 VH with E61Y, A63E
VL: B8 VL
notes: also called hu29F1 VH A63E
B10: MYT9710 (antibody, V domains shown)
VH: B8 VH with E61Y, A66E
VL: B8 VL
notes: also called hu29F1 VH A66E
B11: MYT9706 (antibody, V domains shown)
VH: B8 VH with E61Y, Y62E
VL: B8 VL
notes: also called hu29F1 VH Y62E
B12: MYT9714 (antibody, V domains shown)
VH: B8 VH with E61Y, R100E
VL: B8 VL
notes: also called hu29F1 VH R100E
B13: MYT9713 (antibody, V domains shown)
VH: B8 VH with E61Y, A99E
VL: B8 VL
notes: also called hu29F1 VH A99E
B14: MYT9711 (antibody, V domains shown)
VH: B8 VH with E61Y, K67E
VL: B8 VL
notes: also called hu29F1 VH K67E
B15: MYT9708 (antibody, V domains shown)
VH: B8 VH with E61Y, S64E
VL: B8 VL
notes: also called hu29F1 VH S64E
B16: MYT9712 (antibody, V domains shown)
VH: B8 VH with E61Y, G68E
VL: B8 VL
notes: also called hu29F1 VH G68E

These binders were tested against T1, Human LRRC15 Protein, His Tag (Acro …) (assay: BLI; dissociation pH 7.4 black, pH 5.4 grey [D00009 FIG. 1G]).

binding result	Binder
binds	B1
no binding (tested: 50 nM LRRC15)	B2
binds	B3
binds	B4
binds	B5
no binding (tested: 50 nM LRRC15)	B6
no binding (tested: 50 nM LRRC15)	B7

The binders below were run against T2, Human LRRC15 Protein, His Tag (Acro …) (assay: BLI; dissociation pH 7.4 black, pH 5.4 grey [1/2); D00025 FIG. 6B (1/2]).
Method: Desirable mutations were transferred to a humanized framework (humanized, MYT 8387-8411). After allowing for four days of protein expression, cell culture supernatants were collected, quantified by SDS-PAGE analysis, and the pH dependence of the variant was evaluated using biolayer interferometry (BLI) on an Octet RED 96e instrument. Briefly, cell culture supernatants were diluted based on qualitative expression level of the variant determined by visual examination of SDS-PAGE gels, 5 μL of cell culture supernatant was diluted into 195 μL of 1×PBST, pH 7.4 for high expressors, 25 μL of cell culture supernatant was diluted into 175 μL of 1×PBST, pH 7.4 for medium expressors and 100 μL of cell culture supernatant was diluted into 100 μL of 1×PBST, pH 7.4 for low expressors for loading onto the sensor tips. The resulting diluted supernatants were then captured on an anti-human Fc sensor (Forte Bio). A baseline was established using 1×PBST (50 mM Potassium Phosphate Buffer+150 mM NaCl+0.05% Tween 20) pH 7.4, and the […] was associated with 50 nM of LRRC15 (Human LRRC15 Protein, His Tag, Acro Biosystems) in 1×PBST pH 7.4 for 120 sec to generate an association curve. In the dissociation phase, the antibody-antigen complex on the sensor was exposed to 1×PBST pH 7.4 or pH 5.4, for 300 sec. Association and dissociation phase curves were examined for the starting ABPC antibody (with no substitutions) and each corresponding antibody variant at pH 5.4 and pH 7.4 to inform on two criteria: a) enhanced dissociation (i.e., higher koff values) at pH 5.4 due to histidine substitution compared to the starting ABPC, (with no substitutions), and b) reduced dissociation at pH 7.4 (i.e., lower koff values) compared to pH 5.4 in the antibody variant itself and with the starting ABPC (with no substitutions).
The methods of Examples 9-10 were applied to RabMAb clone 29F1 (rabbit VH SEQ ID NO: 572 and VL SEQ ID NO: 578; and humanized VH SEQ ID NO: 576 and VL SEQ ID NO: 582).

binding result	Binder
binds	B8
binds	B9
binds	B10
binds	B11
binds	B12
binds	B13
binds	B14
binds	B15
binds	B16
